The record followed here is article PMC12407261.

Broadly, the stoichiometry N is a count of units in the complex or per binding partner.

Experiment [1] addresses Streptomyces lydicus Family 2B encapsulin shell protein Sl‐Enc2 with N‐terminal His‐tag (Streptomyces lydicus). Description: cryo-EM structure; Sl‐Enc2 majority mixed sample, 2 mg/mL in 150 mM NaCl, 25 mM Tris pH 8.0; consensus refinement with icosahedral symmetry imposed, 2.59 Å.
In experiment [2] the target is Streptomyces lydicus Family 2B encapsulin shell protein Sl‐Enc1 with N‐terminal His‐tag (Streptomyces lydicus). As to the kind of experiment: affinity purification with mass spectrometry; two-gene operon co-expressed in E. coli BL21 (DE3), only one of the two shell proteins His-tagged; Ni-NTA then SEC; SDS-PAGE bands identified by tryptic digest and LC-MS; ratio by gel densitometry.

Turning to “Streptomyces lydicus Family 2B encapsulin shell protein Sl‐Enc2 with N‐terminal His‐tag (natural protein)”, the stoichiometry N in experiment [1] amounted to 60.

On to “Streptomyces lydicus Family 2B encapsulin shell protein Sl‐Enc2, untagged (natural protein)”, for which, in experiment [2], the apparent share of Sl‐Enc1 in the purified mixed shells (gel densitometry) was determined as 60% and the apparent share of Sl‐Enc2 in the purified mixed shells (gel densitometry) turned out to be 40%.
